How the values were obtained:
Experiment in all cases: ELISA, antigen coated at 2 µg/mL
[1] = biological target: CoV-2 S (R683A, R685A) (SARS-CoV-2) (UniProt P0DTC2)
[2] = biological target: CoV-2 RBD (N354D, D364Y) (SARS-CoV-2) (UniProt P0DTC2)
[3] = biological target: CoV-2 RBD (V367F) (SARS-CoV-2) (UniProt P0DTC2)
[4] = biological target: CoV-2 RBD (W436R) (SARS-CoV-2) (UniProt P0DTC2)
[5] = biological target: CoV-2 RBD (N354D) (SARS-CoV-2) (UniProt P0DTC2)
[6] = biological target: CoV-2 S (D614G) (SARS-CoV-2) (UniProt P0DTC2)

Substance | EC50 [1] [µg/mL] | EC50 [2] [µg/mL] | EC50 [3] [µg/mL] | EC50 [4] [µg/mL] | EC50 [5] [µg/mL] | EC50 [6] [µg/mL]
SARS CoV-2 mAb [SAD-S35] (antibody) | 0.05 | 0.05 | 0.04 | 0.04 | 0.04 | 0.03
IVIG (Gamunex) | 2840 | 1320 | 1130 | 1240 | 1240 | 1330
